The results in this text go back to US20240207432A1 (BIOSION, published 2024).

Substitutions are numbered along the chain they refer to.

T1: full length human TROP2 on 293F-TROP2 cells (human, UniProt P09758 27-323)
T1 construct: also called 293F-TROP2 cells (clone ID #3A8); cell surface TROP2
T1 sequence: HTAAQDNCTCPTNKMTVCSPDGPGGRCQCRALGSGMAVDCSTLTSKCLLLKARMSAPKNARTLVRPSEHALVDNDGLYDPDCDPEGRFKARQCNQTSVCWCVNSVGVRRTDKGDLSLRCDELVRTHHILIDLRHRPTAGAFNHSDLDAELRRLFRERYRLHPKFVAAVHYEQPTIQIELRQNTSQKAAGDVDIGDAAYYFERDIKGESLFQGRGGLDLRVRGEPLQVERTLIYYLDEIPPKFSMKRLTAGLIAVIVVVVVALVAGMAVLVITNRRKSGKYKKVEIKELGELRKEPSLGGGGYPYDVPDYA

T2: cynomolgus TROP2-his protein (cynomolgus monkey, UniProt P09758 27-272 (human entry), limits assumed)
T2 construct: no cleavage site is stated; also called Cynomolgus monkey TROP2-his protein; monkey TROP2
T2 chain: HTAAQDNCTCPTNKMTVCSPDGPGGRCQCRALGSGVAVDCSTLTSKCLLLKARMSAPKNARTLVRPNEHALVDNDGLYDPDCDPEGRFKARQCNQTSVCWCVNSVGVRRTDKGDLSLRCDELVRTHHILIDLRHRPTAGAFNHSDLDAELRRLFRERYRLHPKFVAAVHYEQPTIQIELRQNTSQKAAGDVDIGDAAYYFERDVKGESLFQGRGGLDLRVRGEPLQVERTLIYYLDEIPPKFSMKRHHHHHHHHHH

T3: human TROP2-his protein (human, UniProt P09758 27-274)
T3 construct: Biotin-labelled in the ELISAs, unlabelled analyte in Biacore; also called biotin-labeled human TROP2-his protein; biotin human Trop2-his
T3 sequence: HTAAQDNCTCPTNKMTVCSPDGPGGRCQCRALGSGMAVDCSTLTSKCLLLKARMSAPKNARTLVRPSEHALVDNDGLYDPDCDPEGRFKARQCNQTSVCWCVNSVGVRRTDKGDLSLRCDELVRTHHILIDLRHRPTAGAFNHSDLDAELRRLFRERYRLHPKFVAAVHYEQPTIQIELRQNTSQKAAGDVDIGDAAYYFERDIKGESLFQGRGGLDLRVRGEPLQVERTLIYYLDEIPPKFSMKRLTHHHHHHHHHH

B1: mouse antibody C1B3B12D2 (antibody, V domains shown)
VH: QVQLQQSGPELVRPGTSVKMSCKAAGYTFTKFWIGWVKQRPGHGLEWIGNIYPGGAYINYNENFKGKATLTADTFSSTAYMQLNSLTSADSAIYYCAREGSSGYWGQGTTLTVSS
VL: DIVMTQSPSSLTVTAGEKVTLSCKCSQSLLNSGTQENYLTWYQQKPGQPPKMLIYWASIREPGVPDRFTGSGSGTDFTLTINNVQAEDLAVYYCQHDYSYPFTFGSGTKLEIK
notes: Mouse monoclonal IgG purified from hybridoma supernatant
B2: mouse antibody A1E4F7D4 (antibody, V domains shown)
VH: QVQLQQSGAELAKPGTSVKMSCEASGYSFTTHWIHWMKQRPGQGLEWIGTIFPSNAYAVYNQKFRDRAIMTADRSSTTAYIQLTGLTSEDSAVYYCARASYFDYWGQGTTLTVSS
VL: DILLTQSPATLSVSPGERVTFSCRASQNIGTSIHWFQQRTTGSPRLLIKYASESISGIPSRFSGSGSGTDFTLHINSVESEDIAHYYCQHSHSWPFTFGSGTKLEIQ
notes: Mouse monoclonal IgG purified from hybridoma supernatant; also called Mouse A1E4F7D4
B3: benchmark (in house prepared sacituzumab) (antibody, human IgG1, kappa, V domains shown)
VH: SVQLQQSGSELKKPGASVKVSCKASGYTFTNYGMNWVKQAPGQGLKWMGWINTYTGEPTYTDDFKGRFAFSLDTSVSTAYLQISSLKADDTAVYFCARGGFGSSYWYFDVWGQGSLVTVSS
VL: DIQLTQSPSSLSASVGDRVSITCKASQDVSIAVAWYQQKPGKAPKLLIYSASYRYTGVPDRFSGSGSGTDFTLTISSLQPEDFAVYYCQQHYITPLTFGAGTKVEIKR
notes: also called BM; BM1
B4: huA1E4F7D4-V16 (antibody, human IgG1, kappa, V domains shown)
VH: QVQLVQSGAEVKKPGASVKVSCKASGYSFTTHWIHWVRQAPGQGLEWIGTIFPSNAYAVYNQKFRDRATMTADTSISTAYIELSRLRSDDTAVYYCARASYFDYWGQGTTVTVSS
VL: EIVLTQSPATLSLSPGERATLSCRASQNIGTSIHWFQQKPGGAPRLLIKYASESISGIPSRFSGSGSGTDFTLTISSLEPEDFAVYYCQHSHSWPFTFGQGTKLEIKR
notes: Positions of the X residues are given in the claims; also called humanized antibody huA1E4F7D4-V16
B5: mouse antibody A1E11A12D1 (antibody, V domains shown)
VH: QVQLQQSGAELARPGASVKLSCMASGYTFTTYGISWVRQRTGQGLEWIGQIYPGSDYSYCDEDFKGKATLTADKSSSTAYMQLSSLTSEDSAVYFCARASYFDYWGQGTTLTVSS
VL: DILLTQSPAILSVSPGERVSFSCRASQTIGTAIHWYQQRANGSPRLLIKYASESISGIPSRFSGSGSGTDFALSINTVESEDFAYYYCQQSNNWPFTFGGGTKLEIR
notes: as for B1
B6: mouse antibody A1H3C5H8E12 (antibody, V domains shown)
VH: QVQLQQSGAELVRPGTSVKMSCKAAGYTFTNYWIDWVKQRPGHGLEWIGNIFPGGFYTNYNEKFKGKATLTADTSSSTAYMQLSSLTSEDSAIYYCARGGVFDYWGQGTTLTVSS
VL: B5 VL with T28S, A32S, A40T, A72T, T77S, F83I, Y85D, N93S, F96Y, R107K
notes: as for B1

In the first assay the target is T1, full length human TROP2 on 293F-TROP2 …. In words: FACS on 293F-TROP2 cells, MFI.
In general, EC50 refers to the concentration that produces a half-maximal response. Low readings indicate greater potency, high ones weaker potency. Take B1: the EC50 worked out at 0.636 nM.

Take B2: it took 1.01 nM to reach a half-maximal effect (EC50).

B3: the EC50 was 1.14 nM.

The target is the same in another assay. In words: FACS on 293F-TROP2 cells, MFI. The source holds these as a separate data set. The protocol:
The 293F-TROP2 cells were harvested from cell culture flasks, washed twice and re-suspended in phosphate buffered saline (PBS) containing 2% v/v Fetal Bovine Serum (FACS buffer). […] Following an incubation of 40 minutes at 4° C. in dark, cells were washed twice and re-suspended in FACS buffer. Fluorescence was measured using a Becton Dickinson FACS Canto II-HTS equipment, and the MFI (mean fluorescence intensity) was plotted against antibody concentration. Data was analyzed using Graphpad Prism software and EC₅₀ values were reported.
Regarding B2, a half-maximal effect (EC50) was put at 1.48 nM. This lies in the single-digit nanomolar range.

Take B3: a half-maximal response (EC50) required 1.32 nM.

The molecule B4 returned an EC50 of 0.596 nM.

The target in another assay is T2, cynomolgus TROP2-his protein. In words: indirect ELISA, cynomolgus TROP2-his coated, OD(450-630). (In general: ELISA stands for enzyme-linked immunosorbent assay.)
In turn, B2 returned an EC50 of 0.837 nM.

Molecule B3 gave an EC50 of 0.599 nM.

Consider B4, for which the 50% effective concentration (EC50) amounted to 0.611 nM.

The next assay shares this target. Described as above. The source holds these as a separate data set.
The molecule B1 showed an EC50 of 0.0849 nM.

Turning to B2, the EC50 is 0.177 nM.

On to B3, for which the EC50 amounted to 0.191 nM. The EC50 values of the last two molecules are within 1.5-fold of each other.

A further assay shares this target. In words: indirect ELISA, cynomolgus TROP2-his coated at 2 ug/mL, OD(450-630). The protocol: The anti-TROP2 antibodies of the disclosure were tested for their cross-reaction with cynomolgus TROP2 proteins. Briefly, 96-well micro plates were coated with 100 μl 2 μg/ml cynomolgus TROP2-his proteins (prepared in-house with SEQ ID NO: 70) in carbonate/bicarbonate buffer (pH 9.6) overnight at 4° C. ELISA plates were washed once with wash buffer (PBS+0.05% v/v Tween-20, PBST) and then blocked with 200 μl/well blocking buffer (5% w/v non-fatty milk in PBST) for 2 hours at 37° C. […] After a final wash, plates were incubated with 100 μl/well TMB (Innoreagents) at room temperature. The reaction was stopped 3-10 minutes later at room temperature with 50 μl/well 1M H₂SO₄, and the absorbance of each well was read on a microplate reader using dual wavelength mode with 450 nm for TMB and 630 nm as the reference wavelength. The OD (450-630) values were plotted against antibody concentration. Data was analyzed using Graphpad Prism software and EC₅₀ values were reported.
Molecule B5 returned a half-maximal effective concentration (EC50) of 0.757 nM. In other words, the sub-nanomolar range.

For the molecule B6, the EC50 came out at 0.593 nM.

Molecule B2 showed an EC50 of 0.576 nM.

B3 returned an EC50 of 0.134 nM.

In the next assay the target is T3, human TROP2-his protein. In words: SPR Biacore T200, mAb captured on anti-mouse IgG CM5 chip, TROP2-his analyte. The protocol: (§1) Un-reacted moieties on the chip (biosensor) surface were blocked with ethanolamine. […] The antigen-antibody association kinetics was followed for 2 minutes and the dissociation kinetics was followed for 10 minutes. The association and dissociation curves were fit to a 1:1 Langmuir binding model using BIAcore evaluation software.
Background: In SPR one partner is held on a chip, and binding of the other changes the refractive index at the surface.
What is called Kd is the free concentration of one partner at which half of the binding sites on the other are occupied at equilibrium, for simple one-to-one binding. By koff is commonly meant a measure of how fast the partners let go of each other. A higher koff goes with a short-lived complex. A word on the kon: it is a measure of how fast the partners come together. For the molecule B5, the Kd is 0.154 nM, the koff came to 8.09e-05 s⁻¹ and the kon worked out at 525000 M⁻¹ s⁻¹.

As to B6, the dissociation constant Kd turned out to be 1.81 nM, the off-rate (koff) was determined as 0.000961 s⁻¹ and the on-rate constant (kon) is 531000 M⁻¹ s⁻¹.

B1 yielded a Kd of 0.00136 nM, an off-rate (koff) of 6.45e-07 s⁻¹ and an on-rate constant (kon) of 476000 M⁻¹ s⁻¹.

As to B2, the koff is ~4.7e-05 s⁻¹ and the association rate constant (kon) amounted to 373000 M⁻¹ s⁻¹.

A further assay has as its target T2, cynomolgus TROP2-his protein. The description is as above. The protocol: as §1
B5: the dissociation constant Kd turned out to be 0.0563 nM, the koff was 3.82e-05 s⁻¹ and the on-rate constant (kon) is 678000 M⁻¹ s⁻¹.

Consider B6, for which binding was put at a Kd of 1.12 nM, the koff stood at 0.000758 s⁻¹ and the kon was 674000 M⁻¹ s⁻¹.

Molecule B1 had a Kd of 0.00186 nM, a koff of 9.44e-07 s⁻¹ and a kon of 508000 M⁻¹ s⁻¹.

B2: the koff is ~4.54e-05 s⁻¹ and the kon amounted to 483000 M⁻¹ s⁻¹.

In a further assay the target is T3, human TROP2-his protein. In words: capture ELISA, antibody captured on anti-mouse IgG Fc coat, biotin human TROP2-his in solution, OD(450-630). The protocol:
Plates were washed once with wash buffer (PBS+0.05% v/v Tween-20, PBST) and then blocked with 200 μl/well blocking buffer (5% w/v non-fatty milk in PBST) for 2 hours at 37° C. […] Plates containing captured anti-TROP2 antibodies were incubated with biotin-labeled human TROP2-his protein (prepared in house, SEQ ID NO: 67, 56.7 ng/mL in 2.5% w/v non-fatty milk in PBST, 100 μl/well) for 40 minutes at 37° C., washed 4 times, and incubated with streptavidin conjugated HRP (1:10000 dilution in PBST, Jackson Immuno Research, Cat #016-030-084, 100 μl/well) for 40 minutes at 37° C. After a final wash, plates were incubated with 100 μl/well ELISA substrate TMB (Innoreagents, Cat #TMB-S-002) at room temperature. The reaction was stopped in 3-10 minutes at room temperature with 50 μl/well 1M H₂SO₄, and the absorbance of each well was read on a microplate reader using dual wavelength mode with 450 nm for TMB and 630 nm as the reference wavelength. The OD (450-630) values were plotted against antibody concentration. Data was analyzed using Graphpad Prism software and EC₅₀ values were reported.
The molecule B5 displayed an EC50 of 0.13 nM.

Turning to B6, the response was half-maximal at 0.303 nM (EC50).

As to B1, the 50% effective concentration (EC50) stood at 0.107 nM. This EC50 is about 2.8-fold lower than that of the molecule before.

In the case of B2, a half-maximal effect (EC50) was put at 0.0891 nM.
